{"source": "patent US20150182581A1", "about": "(COUNCIL OF SCIENTIFIC AND INDUSTRIAL RESEARCH, published 2015)", "molecular_target": "ASK-1 + Nef (Nef and ASK1g co-transfected in ATCC CRL-1573 cells) (HIV-1; human, UniProt Q99683 1-1050)", "sequence (Q99683 1-1050)": "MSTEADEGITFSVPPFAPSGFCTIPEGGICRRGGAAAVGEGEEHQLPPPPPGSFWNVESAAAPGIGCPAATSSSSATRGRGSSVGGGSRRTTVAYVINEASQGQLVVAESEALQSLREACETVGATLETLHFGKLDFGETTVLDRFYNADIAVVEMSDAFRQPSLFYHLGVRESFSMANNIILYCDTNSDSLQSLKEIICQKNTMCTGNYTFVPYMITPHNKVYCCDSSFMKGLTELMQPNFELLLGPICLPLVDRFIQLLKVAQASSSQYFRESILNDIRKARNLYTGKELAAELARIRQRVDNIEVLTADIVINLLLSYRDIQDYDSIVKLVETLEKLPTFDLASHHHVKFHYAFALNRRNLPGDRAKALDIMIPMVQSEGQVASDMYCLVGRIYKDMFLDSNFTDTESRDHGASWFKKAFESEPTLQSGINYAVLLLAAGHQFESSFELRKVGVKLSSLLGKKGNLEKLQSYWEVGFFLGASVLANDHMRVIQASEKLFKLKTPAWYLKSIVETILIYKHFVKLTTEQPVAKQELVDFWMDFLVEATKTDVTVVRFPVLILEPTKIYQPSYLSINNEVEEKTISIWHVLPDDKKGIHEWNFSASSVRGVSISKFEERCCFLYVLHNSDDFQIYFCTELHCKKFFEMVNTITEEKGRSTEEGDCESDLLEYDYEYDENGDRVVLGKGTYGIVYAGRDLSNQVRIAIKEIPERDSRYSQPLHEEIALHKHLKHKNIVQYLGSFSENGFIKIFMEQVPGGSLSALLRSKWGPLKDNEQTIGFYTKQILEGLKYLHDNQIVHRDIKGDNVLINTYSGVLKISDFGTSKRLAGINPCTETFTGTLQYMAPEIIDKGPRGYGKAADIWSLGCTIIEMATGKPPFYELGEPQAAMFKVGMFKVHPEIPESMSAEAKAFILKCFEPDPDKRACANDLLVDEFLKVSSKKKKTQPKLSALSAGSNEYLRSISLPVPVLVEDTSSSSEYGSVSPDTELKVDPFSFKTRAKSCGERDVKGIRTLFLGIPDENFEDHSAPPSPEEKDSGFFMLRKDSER", "assay": "cell-based or functional assay", "data": [{"binder": "TPGPGVRYP", "note": "[Peptide-1]", "values": [{"measurement": "% of Annexin V cells means apoptotic cells", "result": 22.4, "unit": "%"}]}, {"binder": "GENNCLLH", "note": "[Peptide-2]", "values": [{"measurement": "% of Annexin V cells means apoptotic cells", "result": 25, "unit": "%"}]}, {"binder": "PVRPQVPLRP", "note": "[Peptide-5]", "values": [{"measurement": "% of Annexin V cells means apoptotic cells", "result": 22.4, "unit": "%"}]}, {"binder": "LHGMEDPE", "note": "[Peptide-4]", "values": [{"measurement": "% of Annexin V cells means apoptotic cells", "result": 23, "unit": "%"}]}, {"binder": "DEVGEANN", "note": "[Peptide-3]", "values": [{"measurement": "% of Annexin V cells means apoptotic cells", "result": 40.4, "unit": "%"}]}]}
